We go through two substances from paper PMC7888922.

Experiment [1] has as its target WT sACE2_(2)-IgG1 (human) (UniProt Q9BYF1). The experiment in a line: BLI. In general terms: Biolayer interferometry detects binding as a change in optical thickness at a sensor tip.
Experiment [2] concerns the target sACE2_(2).v2.4-IgG1 (human) (UniProt Q9BYF1). Nature of the experiment: BLI.

The Kd is the equilibrium constant for the complex coming apart. Lower therefore signals higher affinity. By koff is commonly meant a measure of how fast the partners let go of each other. One may read the kon as a measure of how fast the partners come together. Low values mean slow association, high ones fast association. In experiment [1], RsSHC014 RBD-8h (domain or fragment) gave a Kd of 29 nM, a koff of 0.026 s⁻¹ and a kon of 880000 M⁻¹ s⁻¹. In experiment [2], this substance had a Kd of 1.3 nM, a koff of 0.002 s⁻¹ and a kon of 1.6e+06 M⁻¹ s⁻¹.

On to “SARS-CoV-2 RBD-8h (from UniProt P0DTC2 333-529) (domain or fragment)”, for which, in experiment [2], the Kd came to 0.4 nM, the koff came out at 0.00028 s⁻¹ and the kon was found to be 660000 M⁻¹ s⁻¹.
